Patent publication EP4413993A1 (Dompe' Farmaceutici S.P.A., dated 2024)
“And” between values parts separate entries of the source, which are not always exact repeats. Identical values can stand only once.

Target: TrkB receptor on rat C6 glioma cells (rat, UniProt Q63604 32-821)
Assay: cell-based or functional assay

Sequence of TrkB receptor on rat C6 glioma cells (Q63604 32-821): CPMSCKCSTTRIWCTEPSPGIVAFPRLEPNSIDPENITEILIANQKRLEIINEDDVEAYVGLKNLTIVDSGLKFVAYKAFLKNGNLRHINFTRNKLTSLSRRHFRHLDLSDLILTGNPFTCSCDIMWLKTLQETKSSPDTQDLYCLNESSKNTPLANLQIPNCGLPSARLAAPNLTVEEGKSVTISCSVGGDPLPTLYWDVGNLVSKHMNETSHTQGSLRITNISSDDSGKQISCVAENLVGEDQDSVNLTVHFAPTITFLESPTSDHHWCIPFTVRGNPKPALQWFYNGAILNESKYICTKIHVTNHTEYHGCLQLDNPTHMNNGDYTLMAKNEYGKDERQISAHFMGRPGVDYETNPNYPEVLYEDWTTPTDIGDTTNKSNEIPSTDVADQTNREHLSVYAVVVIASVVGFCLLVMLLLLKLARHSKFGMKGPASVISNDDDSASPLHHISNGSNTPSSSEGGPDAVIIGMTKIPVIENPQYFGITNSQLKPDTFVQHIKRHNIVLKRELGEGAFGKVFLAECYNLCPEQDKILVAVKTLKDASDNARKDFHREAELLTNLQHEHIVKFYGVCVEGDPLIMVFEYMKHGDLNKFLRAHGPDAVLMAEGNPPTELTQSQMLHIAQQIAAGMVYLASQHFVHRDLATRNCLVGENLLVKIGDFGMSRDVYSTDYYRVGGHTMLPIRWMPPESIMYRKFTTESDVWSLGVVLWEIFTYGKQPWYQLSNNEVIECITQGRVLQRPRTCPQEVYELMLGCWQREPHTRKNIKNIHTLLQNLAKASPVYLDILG

EC50, concentration of rhBDNF required to induce 50% proliferation of C6 cells (MTS assay, 48h): ~3 µg/mL and ~0.11 µM
B1: recombinant human brain-derived neurotrophic factor (BDNF) (ligand)
chain: HSDPARRGELSVCDSISEWVTAADKKTAVDMSGGTVTVLEKVPVSKGQLKQYFYETKCNPMGYTKEGCRGIDKRHWNSQCRTTQSYVRALTMDSKKRIGWRFIRIDTSCVCTLTIKRGR
